Data from article PMC10397247.
Blank lines part the entries; values can stand above or below the binder they belong to.

What was measured:
4H2750-AA = target: T1, 4H2750-AA; experiment: two-hybrid library CCmax; details: mean of both orientations;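 further: natural log of median RNA to DNA barcode read ratio; higher means stronger binding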
T1 chain: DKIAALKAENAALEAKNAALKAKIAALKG

4H_GCN4 = experiment: two-hybrid library CCmax;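 further: natural log of median RNA to DNA barcode read ratio; higher means stronger binding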
4H_GCN4, sequence (chain, as listed by the source): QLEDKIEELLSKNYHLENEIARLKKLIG

4H486-AA = target: T2, 4H486-AA; experiment: two-hybrid library CCmax; details: mean of both orientations;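 further: natural log of median RNA to DNA barcode read ratio; higher means stronger binding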
T2 chain: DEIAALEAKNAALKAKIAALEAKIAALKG

4H3365-AA = target: T3, 4H3365-AA; experiment: two-hybrid library CCmax; details: mean of both orientations;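 further: natural log of median RNA to DNA barcode read ratio; higher means stronger binding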
T3 chain: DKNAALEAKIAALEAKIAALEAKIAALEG

4H3782-AA = target: T4, 4H3782-AA; experiment: two-hybrid library CCmax; details: mean of both orientations
T4 chain: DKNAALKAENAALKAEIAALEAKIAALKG

4H3705-AA = target: T5, 4H3705-AA; experiment: two-hybrid library CCmax; details: mean of both orientations
T5 chain: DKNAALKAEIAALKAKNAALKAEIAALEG

GCN2_T = experiment: two-hybrid library CCmax; details: mean of both orientations
4H895-AA = target: T6, 4H895-AA; experiment: two-hybrid library CCmax; details: mean of both orientations
T6 chain: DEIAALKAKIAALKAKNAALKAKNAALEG

4H2898-AA = target: T7, 4H2898-AA; experiment: two-hybrid library CCmax; details: mean of both orientations
T7 chain: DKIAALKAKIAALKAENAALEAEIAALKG

4H_APH = target: T8, 4H_APH; experiment: two-hybrid library CCmax; details: mean of both orientations
T8 chain: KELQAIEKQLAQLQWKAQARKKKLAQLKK

4H535-AA = target: T9, 4H535-AA; experiment: two-hybrid library CCmax; details: mean of both orientations
T9 chain: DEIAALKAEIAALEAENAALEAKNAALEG

4H3020-AA = target: T10, 4H3020-AA; experiment: two-hybrid library CCmax; details: mean of both orientations
T10 chain: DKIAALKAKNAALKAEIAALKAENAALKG

4H_BCR = target: T11, 4H_BCR; experiment: two-hybrid library CCmax; details: mean of both orientations
T11 chain: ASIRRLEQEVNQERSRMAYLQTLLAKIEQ

4H355-AA = target: T12, 4H355-AA; experiment: two-hybrid library CCmax; details: mean of both orientations
T12 chain: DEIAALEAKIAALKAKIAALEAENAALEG

4H58-AA = target: T13, 4H58-AA; experiment: two-hybrid library CCmax; details: mean of both orientations
T13 chain: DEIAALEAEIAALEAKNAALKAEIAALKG

4H2721-AA = target: T14, 4H2721-AA; experiment: two-hybrid library CCmax
T14 chain: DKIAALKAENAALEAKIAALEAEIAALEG

4H465-AA = target: T15, 4H465-AA; experiment: two-hybrid library CCmax; details: mean of both orientations
T15 chain: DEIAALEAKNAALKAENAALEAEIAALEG

4H3651-AA = target: T16, 4H3651-AA; experiment: two-hybrid library CCmax; details: mean of both orientations
T16 chain: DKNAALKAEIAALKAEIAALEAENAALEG

4H3057-bH = target: T17, 4H3057-bH; experiment: two-hybrid library CCNG1
T17 chain: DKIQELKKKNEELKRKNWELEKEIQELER

4H2717-bH = target: T18, 4H2717-bH; experiment: two-hybrid library CCNG1
T18 chain: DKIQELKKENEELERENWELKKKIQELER

4H2503-bH = target: T19, 4H2503-bH; experiment: two-hybrid library CCNG1
T19 chain: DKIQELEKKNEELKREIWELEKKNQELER

4H40-bH = target: T20, 4H40-bH; experiment: two-hybrid library CCNG1
T20 chain: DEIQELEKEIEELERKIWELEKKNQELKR

4H2588-bH = target: T21, 4H2588-bH; experiment: two-hybrid library CCNG1
T21 chain: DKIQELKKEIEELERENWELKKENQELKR

4H319-bH = target: T22, 4H319-bH; experiment: two-hybrid library CCNG1
T22 chain: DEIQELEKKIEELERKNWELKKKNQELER

4H2839-bH = target: T23, 4H2839-bH; experiment: two-hybrid library CCNG1
T23 chain: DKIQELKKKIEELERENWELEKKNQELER

4H619-bH = target: T24, 4H619-bH; experiment: two-hybrid library CCNG1
T24 chain: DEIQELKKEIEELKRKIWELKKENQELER

4H2915-bH = target: T25, 4H2915-bH; experiment: two-hybrid library CCNG1
T25 chain: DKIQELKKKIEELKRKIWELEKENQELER

4H348-bH = target: T26, 4H348-bH; experiment: two-hybrid library CCNG1
T26 chain: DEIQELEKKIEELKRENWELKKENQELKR

4H3277-bH = target: T27, 4H3277-bH; experiment: two-hybrid library CCNG1
T27 chain: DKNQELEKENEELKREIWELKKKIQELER

4H741-bH = target: T28, 4H741-bH; experiment: two-hybrid library CCNG1
T28 chain: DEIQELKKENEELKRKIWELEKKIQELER

4H2692-bH = target: T29, 4H2692-bH; experiment: two-hybrid library CCNG1
T29 chain: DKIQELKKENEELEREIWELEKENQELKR

4H477-bH = target: T30, 4H477-bH; experiment: two-hybrid library CCNG1
T30 chain: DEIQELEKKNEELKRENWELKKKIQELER

4H492-bH = target: T31, 4H492-bH; experiment: two-hybrid library CCNG1
T31 chain: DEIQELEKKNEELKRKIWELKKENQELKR

4H2473-bH = target: T32, 4H2473-bH; experiment: two-hybrid library CCNG1
T32 chain: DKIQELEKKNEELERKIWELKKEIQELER

interaction score (4H2750-AA): 0.408
interaction score (4H_GCN4): -1.31
interaction score (4H486-AA): 2.11
interaction score (4H3365-AA): -1.58
interaction score (4H3782-AA): 1.73
interaction score (4H3705-AA): 1.59
interaction score (GCN2_T): -0.835
interaction score (4H895-AA): -1.62
interaction score (4H2898-AA): 0.892
interaction score (4H_APH): -2.01
interaction score (4H535-AA): -1.55
interaction score (4H3020-AA): -1.05
interaction score (4H_BCR): -1.38
interaction score (4H355-AA): -0.56
interaction score (4H58-AA): 0.0667
interaction score (4H2721-AA): 0.879
interaction score (4H465-AA): -0.696
interaction score (4H3651-AA): -1.51
Binder: DKIAALKAENAALEAKIAALEAEIAALEG [4H2721-AA]

interaction score (4H3057-bH): 0.309
interaction score (4H2717-bH): -0.241
interaction score (4H2503-bH): 0.0804
interaction score (4H40-bH): -0.286
interaction score (4H2588-bH): -0.165
interaction score (4H319-bH): -1.01
interaction score (4H2839-bH): -0.0772
interaction score (4H619-bH): -2.35
interaction score (4H2915-bH): 0.134
interaction score (4H348-bH): -0.545
interaction score (4H3277-bH): -0.651
interaction score (4H741-bH): -0.491
interaction score (4H2692-bH): 0.549
interaction score (4H477-bH): -1.42
interaction score (4H492-bH): 0.0302
interaction score (4H2473-bH): 1.05
Binder: DKIQELEKKNEELERKIWELKKEIQELER [4H2473-bH]
